This note sets out measurements from US20190225698A1 (JIANGSU HENGRUI MEDICINE, published 2019).

In assay [1] the target is T1, murine CD27 expressed on the cell surface of transfected HEK293 cells (murine, UniProt P41272 24-250).
T1 construct: whole, on cells; also called mouse CD27 antigen expressed by HEK293 cells
T1 sequence (looked up): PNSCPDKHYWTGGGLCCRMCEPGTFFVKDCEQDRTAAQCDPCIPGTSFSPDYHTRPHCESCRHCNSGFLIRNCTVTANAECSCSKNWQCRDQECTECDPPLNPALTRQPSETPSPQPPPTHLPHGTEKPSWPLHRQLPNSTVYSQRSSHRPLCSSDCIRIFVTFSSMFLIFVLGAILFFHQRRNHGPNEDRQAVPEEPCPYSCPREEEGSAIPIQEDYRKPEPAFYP
As to the kind of experiment: flow cytometry on transfected HEK293 cells.

Assay [2] addresses T2, human CD27 expressed on the cell surface of transfected HEK293 cells (human, UniProt P26842 20-260).
T2 construct: whole, on cells; also called human CD27 antigen expressed by HEK293 cells
T2 sequence (looked up): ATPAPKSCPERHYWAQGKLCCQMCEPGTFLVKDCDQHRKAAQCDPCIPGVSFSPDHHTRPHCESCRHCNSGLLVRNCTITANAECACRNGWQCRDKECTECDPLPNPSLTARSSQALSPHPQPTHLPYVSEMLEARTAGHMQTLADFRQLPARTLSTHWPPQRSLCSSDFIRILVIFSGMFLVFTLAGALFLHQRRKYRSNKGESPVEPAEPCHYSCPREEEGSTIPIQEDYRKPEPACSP
As to the kind of experiment: flow cytometry on transfected HEK293 cells. A general note: In flow cytometry, cells or beads pass a laser one at a time.

The target in assay [3] is T3, murine TNFRSF1A expressed on transfected HEK293 cells (murine, UniProt P25118 30-454).
T3 construct: whole, on cells
T3 sequence (looked up): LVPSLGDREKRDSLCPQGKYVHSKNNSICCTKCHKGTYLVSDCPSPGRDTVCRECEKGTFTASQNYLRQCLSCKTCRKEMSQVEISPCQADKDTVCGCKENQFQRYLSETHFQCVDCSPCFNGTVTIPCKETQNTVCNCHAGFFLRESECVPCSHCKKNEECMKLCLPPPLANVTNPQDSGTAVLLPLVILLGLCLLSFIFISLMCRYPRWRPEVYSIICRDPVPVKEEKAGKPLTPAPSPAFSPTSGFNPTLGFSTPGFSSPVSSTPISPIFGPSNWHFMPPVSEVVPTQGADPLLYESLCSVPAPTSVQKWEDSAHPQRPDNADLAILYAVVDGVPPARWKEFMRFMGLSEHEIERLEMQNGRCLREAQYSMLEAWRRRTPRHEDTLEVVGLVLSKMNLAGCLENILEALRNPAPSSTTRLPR
As to the kind of experiment: flow cytometry on transfected HEK293 cells.

Assay [4] has as its target T4, murine CD137 expressed on transfected HEK293 cells (murine, UniProt P20334 24-256).
T4 construct: whole, on cells
T4 sequence (looked up): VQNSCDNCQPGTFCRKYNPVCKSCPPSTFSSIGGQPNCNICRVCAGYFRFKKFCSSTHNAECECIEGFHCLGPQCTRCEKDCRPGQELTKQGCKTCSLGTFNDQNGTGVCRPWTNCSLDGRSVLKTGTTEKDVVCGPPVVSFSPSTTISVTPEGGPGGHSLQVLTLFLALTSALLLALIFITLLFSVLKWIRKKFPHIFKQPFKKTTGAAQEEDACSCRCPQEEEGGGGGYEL
As to the kind of experiment: flow cytometry on transfected HEK293 cells.

The target of assay [5] is T1, murine CD27 expressed on the cell …. As to the kind of experiment: flow cytometry on transfected HEK293 cells, 100 nM antibody. How it is done:
(§1) The binding of antibody to human or murine CD27 expressed on cell surface is determined by fluorescence activated cell sorting (FACS). The corresponding antigen was transiently transfected into HEK293 cells using a vector plasmid and expressed. After 48 hours, cells were harvested and washed once with cold FACS buffer (PBS, 1% BSA), and then incubated with 100 nM corresponding antibody for 1 hour on ice. After washing twice with buffer, the cells were bound to Alexa Fluor 647-conjugated murine anti-human Fc antibody for 30 minutes on ice. After washing once, the cells were loaded onto a Beckman® CytoFlex flow cytometer for detection and the percentage of cells with binding signals was calculated.

Assay [6] addresses T2, human CD27 expressed on the cell …. The description is as above. How it is done: as §1

B1: anti-CD27 antibody mAb076 (IgG1 form) (antibody, V domains shown)
VH: EVQLVESGGGLVQPGGSLRLSCAASGFTFSDYGIHWVRQAPGKGLEWIGWINPNRGSTNYAQKFQGRVTISRDNSKNTLYLQLNSLRAEDTAVYYCARDYGYTWYFDVWGQGTLVTVSS
VL: DIQLTQSPSSLSASVGDRVTITCRASQDISSVLAWYQQKPGKAPKLLIYAASSLQSGVPSRFSGSGSGTDFTLTISSLQPEDFATYYCQQRDAWPLTFGQGTKVEIK
notes: Human antibody from phage display
As for B1, the binding result in assay [1] is “binds”; in assay [2], “binds”; in assay [3], “no binding (tested: 100 nM)”; in assay [4] it was “no binding (tested: 100 nM)”.

B2: anti-CD27 antibody mAb077 (IgG1 form) (antibody, V domains shown)
VH: EVQLVESGGGLVQPGGSLRLSCAASGFTFSGYGIHWVRQAPGKGLEWIGWINPNRGSTKYAQKFQGRVTISRDNSKNTLYLQLNSLRAEDTAVYYCARDPGYTWYFDVWGQGTLVTVSS
VL: DIQLTQSPSSLSASVGDRVTITCRASQDISSDLAWYQQKPGKAPKLLIYAASTLQSGVPSRFSGSGSGTDFTLTISSLQPEDFATYYCQQRDAWPPTFGQGTKVEIK
notes: as for B1
On to B2, for which the binding result was “no binding (tested: 100 nM)” in assay [3], “no binding (tested: 100 nM)” in assay [4], “binds” in assay [5] and “binds” in assay [6].
